Reference: the Human Domainome abundance scans (Beltran et al. 2025)
± gives the uncertainty stated by the source.

B1: Gamma-crystallin C, residues 4 to 79; numbered along this chain, P07315 (parent)
chain: ITFYEDRAFQGRSYETTTDCPNLQPYFSRCNSIRVESGCWMLYERPNYQGQQYLLRRGEYPDYQQWMGLSDSIRSC

Variants of: B1
Assay: abundance fitness (aPCA) (normalised: wild type 0, dead -1); higher = more abundant; growth selection in yeast, the domain comes from the species named
Details: Homo sapiens

Abundance fitness: each site, then its substitutions
D19: R -0.027 ± 0.075, I -0.011 ± 0.18, Q -0.032 ± 0.12, L 0.042 ± 0.1, W 0.059 ± 0.12, H -0.074 ± 0.17, Y -0.187 ± 0.24, V -0.101 ± 0.089, E -0.063 ± 0.095, T -0.135 ± 0.12, G -0.101 ± 0.067, P -0.35 ± 0.16, C -0.052 ± 0.15, M -0.037 ± 0.091, A -0.086 ± 0.09
Y14: R -0.05 ± 0.054, A -0.024 ± 0.1, F 0.114 ± 0.14, K -0.163 ± 0.1, C -0.227 ± 0.15, V -0.216 ± 0.092, P -0.922 ± 0.19, N -0.154 ± 0.23, M 0.423 ± 0.29, Q -0.27 ± 0.22, E -0.375 ± 0.12, W 0.112 ± 0.09, G -0.497 ± 0.086, S -0.042 ± 0.079, D -0.895 ± 0.26, I 0.003 ± 0.098, T -0.167 ± 0.16, H -0.117 ± 0.12, L -0.101 ± 0.072
S13: G -0.024 ± 0.066, K 0.148 ± 0.17, I 0.028 ± 0.15, M -0.075 ± 0.077, V 0.058 ± 0.1, Y -0.271 ± 0.2, A -0.051 ± 0.085, Q 0.061 ± 0.1, T -0.043 ± 0.13, F -0.16 ± 0.18, H -0.025 ± 0.15, C -0.058 ± 0.11, D -0.122 ± 0.14, R 0.03 ± 0.066, E -0.104 ± 0.09, L -0.157 ± 0.091
T16: G -0.089 ± 0.058, I -0.098 ± 0.13, Y 0.202 ± 0.17, D -0.215 ± 0.066, V 0.031 ± 0.083, H 0.007 ± 0.096, S -0.034 ± 0.093, C 0.003 ± 0.13, K -0.011 ± 0.18, N -0.116 ± 0.13, L 0.013 ± 0.086, W 0.012 ± 0.085, M 0.074 ± 0.17, P -0.342 ± 0.18, R -0.078 ± 0.081, Q 0.027 ± 0.081, F 0.084 ± 0.1, E -0.291 ± 0.12, A 0.074 ± 0.091
N22: K 0.064 ± 0.072, L 0.036 ± 0.076, D -0.004 ± 0.13, T 0.097 ± 0.11, A -0.041 ± 0.088, C -0.123 ± 0.31, F 0.17 ± 0.13, S 0.012 ± 0.08, R 0.016 ± 0.065, G -0.158 ± 0.085, H -0.176 ± 0.16, E -0.1 ± 0.13, Q -0.046 ± 0.12
P21: A -0.028 ± 0.11, E -0.074 ± 0.13, K 0.016 ± 0.12, S -0.19 ± 0.083, M 0.075 ± 0.099, F -0.161 ± 0.24, G 0.053 ± 0.055, L -0.023 ± 0.059, H -0.164 ± 0.18, T 0.006 ± 0.097, N 0.112 ± 0.18, C -0.119 ± 0.1, R -0.131 ± 0.052, W -0.05 ± 0.12, Q 0.016 ± 0.086
C20: E -0.041 ± 0.11, M 0.068 ± 0.12, N 0.22 ± 0.26, G -0.058 ± 0.07, S 0.104 ± 0.11, W -0.103 ± 0.046, D 0.169 ± 0.052, F -0.211 ± 0.23, A 0.124 ± 0.089, P -0.64 ± 0.13, Q -0.027 ± 0.16, K -0.243 ± 0.32, T 0.019 ± 0.1, L -0.042 ± 0.057, Y -0.079 ± 0.11, V -0.133 ± 0.076
T18: N 0.049 ± 0.12, W 0.017 ± 0.091, P -0.847 ± 0.25, K -0.065 ± 0.13, L -0.023 ± 0.084, M -0.008 ± 0.11, D 0.169 ± 0.44, C -0.165 ± 0.19, G -0.006 ± 0.033, Q -0.333 ± 0.15, F -0.014 ± 0.24, R -0.168 ± 0.087, I -0.031 ± 0.19, V -0.03 ± 0.064, S 0.044 ± 0.1, E -0.02 ± 0.1, A 0.09 ± 0.18
E15: P -0.072 ± 0.14, Y -0.057 ± 0.2, S 0.005 ± 0.081, G -0.072 ± 0.057, I 0.066 ± 0.23, W 0.069 ± 0.14, N 0.075 ± 0.28, H 0.066 ± 0.26, K 0.165 ± 0.33, V -0.073 ± 0.11, A -0.113 ± 0.14, D -0.064 ± 0.12, M -0.013 ± 0.15, Q 0.026 ± 0.18
R12: Q 0.022 ± 0.083, Y -0.022 ± 0.15, V -0.039 ± 0.056, M -0.043 ± 0.079, S -0.033 ± 0.048, T 0.024 ± 0.082, P -0.053 ± 0.076
T17: A -0.014 ± 0.096, D -0.135 ± 0.16, R 0.034 ± 0.11, V -0.006 ± 0.099, I -0.227 ± 0.2, M -0.124 ± 0.11, E 0.046 ± 0.14, Q 0.048 ± 0.27, W -0.092 ± 0.18, K -0.119 ± 0.11, S -0.061 ± 0.088, P -0.01 ± 0.28, F -0.152 ± 0.14, L -0.089 ± 0.084, C 0.054 ± 0.19, N -0.24 ± 0.21
